Reference: patent US20240002497A1 (Merck Sharp & Dohme, published 2024)
Residue numbers refer to the chain shown, from its start. Names and notes keep the numbering of the source.

B1: F010301893 (VHH)
VHH: EVQLVESGGGVVQPGGSLRLSCATTSRAFIRDVFTGWYRRVPGKQRELVARIYNGGNTNYADFAKGRFTISRDNAKKMVYLQMNSLRPEDTALYYCLFSGTINTGREYRSGDYWGQGTLVTVSS
notes: also called F0103464B09(L11V, E44Q, S68T, T79Y, R81Q, S82aN, N82bS, K83R, G88A, V89L)
B2: F010302337 (VHH)
VHH: B1 VHH with T24A, T25S, S26H, A28Q, V41A, N54E, N59Q, F63S, M78T, N103S
B3: F010302339 (VHH)
VHH: B1 VHH with T24A, T25S, S26H, V41A, N54E, N59Q, F63S, M78T, N103S
B4: F010302347 (VHH)
VHH: B1 VHH with T24A, T25S, S26H, R40Q, V41A, N54E, N59Q, F63S, M78T, N103S
B5: F010302355 (VHH)
VHH: B1 VHH with T24A, T25S, S26H, V41A, N54E, N59Q, F63S, A64V, M78T, N103S
B6: F010301935 (VHH)
VHH: B1 VHH with Q45E, T69S, Q82R, N84S, S85N, A92G
notes: also called F0103464B09(L11V, T79Y, K83R, V89L)
B7: F010301936 (VHH)
VHH: B1 VHH with Q45E, T69S, Y80T, N84S, S85N, A92G
notes: also called F0103464B09(L11V, R81Q, K83R, V89L)
B8: F010301938 (VHH)
VHH: B1 VHH with Q45E, T69S, Y80T, Q82R, N84S, A92G
notes: also called F0103464B09(L11V, N82bS, K83R, V89L)
B9: F010301934 (VHH)
VHH: B1 VHH with Q45E, T69S, M78T, Y80T, Q82R, N84S, S85N, A92G
notes: also called F0103464B09(L11V, M77T, K83R, V89L)
B10: F010301932 (VHH)
VHH: B1 VHH with Q45E, T69S, Y80T, Q82R, N84S, S85N, A92G
notes: also called F0103464B09(L11V, K83R, V89L)
B11: F010301937 (VHH)
VHH: B1 VHH with Q45E, T69S, Y80T, Q82R, S85N, A92G
notes: also called F0103464B09(L11V, S82aN, K83R, V89L)
B12: F010301933 (VHH)
VHH: B1 VHH with Q45E, Y80T, Q82R, N84S, S85N, A92G
notes: also called F0103464B09(L11V, S68T, K83R, V89L)
B13: F010301939 (VHH)
VHH: B1 VHH with Q45E, T69S, Y80T, Q82R, N84S, S85N
notes: also called F0103464B09(L11V, K83R, G88A, V89L)
B14: F010301556 (VHH)
VHH: EVQLVESGGGLVQAGGSLRLSCAASGRILRIGYMRWHRQGAGKQREFVARITGGSATGYADSVKGRFTISRDNAKNTVYLQMNNLNPEDTAVYYCEALVTASVRGGSIHSGTYWGRGTLVTVSS
notes: also called F0103387G05(D23A, D53G, D54G, D58G)
B15: F010301563 (VHH)
VHH: B14 VHH with G53D, G54D
notes: also called F0103387G05(D23A, D58G)
B16: F010301849 (VHH)
VHH: B14 VHH with L11V, A14P, G40A, A41P, G53D, G54D, N84S, N86R, V92L, R116Q
notes: also called F0103387G05(L11V, A14P, D23A, G40A, A41P, D58G, N82bS, N83R, V89L, R105Q)
B17: F010301344 (VHH)
VHH: B14 VHH with A23D, G53D, G58D
notes: vs 387G05: D54G
B18: F010301372 (VHH)
VHH: B14 VHH with A23D, G53D, G54D, G58D, S107G
notes: vs 387G05: S100dG
B19: F010301367 (VHH)
VHH: B14 VHH with A23D, G54D, G58D
notes: vs 387G05: D53G
B20: F010301314 (VHH)
VHH: B14 VHH with G53D, G54D, G58D
notes: vs 387G05: D23A
B21: F010301563 (VHH)
VHH: B14 VHH with G53D, G54D
notes: also called F0103387G05(D23A, D58G); F0103301563
B22: F010301566 (VHH)
VHH: B14 VHH with A23D, G53D
notes: vs 387G05: D54G, D58G
B23: F010301350 (VHH)
VHH: B14 VHH with A23D, G53D, G54D, G58V
notes: vs 387G05: D58V
B24: F010301445 (VHH)
VHH: B14 VHH with A23D, G53D, G54D, G58D, S107Y
notes: vs 387G05: S100dY
B25: F010301559 (VHH)
VHH: B14 VHH with G53D
notes: vs 387G05: D23A, D54G, D58G
B26: F010301562 (VHH)
VHH: B14 VHH with G53D, G58D
notes: vs 387G05: D23A, D54G
B27: F010301558 (VHH)
VHH: B14 VHH with G54D
notes: vs 387G05: D23A, D53G, D58G
B28: F010301564 (VHH)
VHH: B14 VHH with A23D, G58D
notes: vs 387G05: D53G, D54G
B29: F010301346 (VHH)
VHH: B14 VHH with A23D, G53D, G54D
notes: vs 387G05: D58G
B30: F010301556 (VHH)
VHH: B14 VHH
notes: as for B14
B31: F010301557 (VHH)
VHH: B14 VHH with G58D
notes: vs 387G05: D23A, D53G, D54G
B32: F010301565 (VHH)
VHH: B14 VHH with A23D, G54D
notes: vs 387G05: D53G, D58G
B33: F010301561 (VHH)
VHH: B14 VHH with G54D, G58D
notes: vs 387G05: D23A, D53G
B34: F010301560 (VHH)
VHH: B14 VHH with A23D
notes: vs 387G05: D53G, D54G, D58G

biological target: T1, rhNav1.7α + β1-β2-β3 (rhesus monkey); experiment: binding FACS, CHO FlpIn
T1 construct: also called rhNav1.7-beta1-beta2-beta3; rhNav1.7-β1-β2-β3
Outline: (§1)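 Cells are first suspended in FACS buffer at 1×10^5 per well. Next, FLAG3-tagged ISVD is added for 30 minutes at 4° C, and binding is then detected with murine anti-Flag. Finally, samples go into 1 μg/mL propidium iodide before flow cytometry.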

| Binder | EC50 [nM] | Bmax [%] |
| --- | --- | --- |
| B1 | 21 | – |
| B2 | 6.8 | 100 |
| B3 | 6.8 | 100 |
| B4 | 9.6 | 100 |
| B5 | 6.8 | 97 |
| B6 | 27 | – |
| B7 | 26 | – |
| B8 | 20 | – |
| B9 | 21 | – |
| B10 | 17 | – |
| B11 | 20 | – |
| B12 | 21 | – |
| B13 | 22 | – |

biological target: T2, huNav1.7α + β1-β2-β3 (human, UniProt Q15858 1-1988; A5A6L6 19-218; O60939 30-215; Q2KI11 23-215); experiment: binding FACS, CHO FlpIn
T2 construct: also called huNav1.7-beta1-beta2-beta3; huNav1.7-β1-β2-β3
Outline: as §1

| Binder | Bmax [%] | EC50 [nM] |
| --- | --- | --- |
| B1 | 100 | 5.8 |
| B2 | 100 | 3.9 |
| B3 | 100 | 4.3 |
| B4 | 100 | 4.6 |
| B5 | 100 | 3.5 |
| B6 | 94 | 3.8 |
| B7 | 95 | 4.4 |
| B8 | 97 | 4.8 |
| B9 | 96 | 4.3 |
| B10 | 94 | 4.3 |
| B11 | 95 | 4.3 |
| B12 | 94 | 4.4 |
| B13 | 96 | 5.1 |

biological target: T3, huNav1.7α + β1 (human Nav1.7α co-expressed with Navβ1) (human, UniProt Q15858 1-1988; Q07699 19-218); experiment: binding FACS, HEKa/β1 cells
T3 construct: also called HEK293 human Nav1.7α + β1; HEKa/β1 Nav1.7α

| Binder | EC50 [nM] |
| --- | --- |
| B14 | 1.4 |
| B15 | 1 |
| B16 | 1.8 |

biological target: T4, huNav1.7α+β1 (human, UniProt Q15858 1-1988; Q07699 19-218); experiment: binding FACS, HEKa/β1 cells
T4 construct: also called huNav1.7-beta1; HEKa/β1
Method: (§2) Binding of the ISVDs to cell-expressed Nav1.7α was detected via murine anti-Flag (Sigma, catalog #F1804). Briefly, cells were resuspended in FACS buffer (PBS, 10% FBS, NaN₃) and transferred to a 96-well V-bottom plate at 1×10^5 cells/well. Purified FLAG3-tagged ISVD was diluted in FACS buffer and added to the cells for 30 minutes at 4° C. […] Prior to the read-out, the samples were resuspended in 1 μg/mL propidium iodide (Sigma, catalog #P4170) to exclude dead cells. Between each step, the cells were centrifuged for 5 minutes at 200 grams and washed with 100 μL/well FACS buffer.

| Binder | EC50 [nM] |
| --- | --- |
| B17 | 2.1 |
| B18 | 2.3 |
| B19 | 1.9 |
| B20 | 1.8 |
| B21 | 1 |
| B22 | 1 |
| B23 | 1.7 |
| B24 | 2 |
| B25 | 0.92 |
| B26 | 1.9 |
| B27 | 0.93 |
| B28 | 2.4 |
| B29 | 1.6 |
| B30 | 1.4 |
| B31 | 2.1 |
| B32 | 1 |
| B33 | 1.2 |
| B34 | 1.1 |

biological target: T5, huNav1.7α (human, UniProt Q15858 1-1988); experiment: binding FACS, HEKa cells
T5 construct: HEK cells expressing the α subunit alone; also called HEKa; HEK huNav1.7α
Method: as §2

| Binder | EC50 [nM] |
| --- | --- |
| B17 | 1.3 |
| B18 | 2.5 |
| B19 | 2.2 |
| B20 | 1.9 |
| B21 | 1.5 |
| B22 | 1.2 |
| B23 | 1.6 |
| B24 | 2.3 |
| B25 | 0.87 |
| B26 | 1.2 |
| B27 | 1.5 |
| B28 | 1.9 |
| B29 | 1.5 |
| B30 | 1.8 |
| B31 | 2 |
| B32 | 1.4 |
| B33 | 2.2 |
| B34 | 1.2 |

biological target: T6, muNav1.7α (murine, UniProt Q62205 1-1984); experiment: binding FACS, HEK JmpIn
T6 construct: HEK JmpIn cells; also called murine Nav1.7α
Method: as §2

| Binder | EC50 [nM] | Bmax [%] |
| --- | --- | --- |
| B1 | 3.6 | – |
| B2 | – | 74 |
| B3 | 8.7 | 61 |
| B4 | 14 | 48 |
| B5 | 21 | 30 |
| B6 | 5.5 | – |
| B7 | 4.8 | – |
| B8 | 4.7 | – |
| B9 | 4.5 | – |
| B10 | 4.8 | – |
| B11 | 4.8 | – |
| B12 | 5.3 | – |
| B13 | 6.3 | – |

biological target: T7, huNav1.7α (human Nav1.7 alpha subunit, expressed without β subunits) (human, UniProt Q15858 1-1988); experiment: binding FACS, HEKa cells
T7 construct: also called HEK293 human Nav1.7α; HEKa Nav1.7α

| Binder | EC50 [nM] | Bmax [%] |
| --- | --- | --- |
| B14 | 1.8 | – |
| B15 | 1.5 | – |
| B16 | 3 | 100 |

biological target: T8, huNav1.7α+β1-β2-β3 (human, UniProt Q15858 1-1988; Q07699 19-218; O60939 30-215; Q9NY72 23-215); experiment: binding FACS, CHO FlpIn cells
T8 construct: 5N11S variant; also called huNav1.7-beta1-beta2-beta3; huNav1.7α+Navβ1-Navβ2-Navβ3
Outline: as §1

| Binder | EC50 [nM] |
| --- | --- |
| B17 | 4.2 |
| B18 | 4.5 |
| B19 | 4.2 |
| B20 | 3.5 |
| B21 | 1.9 |
| B22 | 2.2 |
| B23 | 3.5 |
| B24 | 4.6 |
| B25 | 1.8 |
| B26 | 2.5 |
| B27 | 1.8 |
| B28 | 3.5 |
| B29 | 3.4 |
| B30 | 2.3 |
| B31 | 3.8 |
| B32 | 2.1 |
| B33 | 2.5 |
| B34 | 2.1 |
